Where a chain is given by its changes, count along the chain named.
Experiments:
[1] = target: T1, human Cadherin-17 (CDH17), cell-surface, endogenous on human cancer cells (human, UniProt Q12864 23-832); assay: flow cytometry on LoVo cells, antibody titration
T1 construct: Endogenous CDH17 on LoVo, LS174T and SNU-1 cells and in human tumor tissue sections; also called liver-intestine cadherin; LI-cadherin
T1 sequence: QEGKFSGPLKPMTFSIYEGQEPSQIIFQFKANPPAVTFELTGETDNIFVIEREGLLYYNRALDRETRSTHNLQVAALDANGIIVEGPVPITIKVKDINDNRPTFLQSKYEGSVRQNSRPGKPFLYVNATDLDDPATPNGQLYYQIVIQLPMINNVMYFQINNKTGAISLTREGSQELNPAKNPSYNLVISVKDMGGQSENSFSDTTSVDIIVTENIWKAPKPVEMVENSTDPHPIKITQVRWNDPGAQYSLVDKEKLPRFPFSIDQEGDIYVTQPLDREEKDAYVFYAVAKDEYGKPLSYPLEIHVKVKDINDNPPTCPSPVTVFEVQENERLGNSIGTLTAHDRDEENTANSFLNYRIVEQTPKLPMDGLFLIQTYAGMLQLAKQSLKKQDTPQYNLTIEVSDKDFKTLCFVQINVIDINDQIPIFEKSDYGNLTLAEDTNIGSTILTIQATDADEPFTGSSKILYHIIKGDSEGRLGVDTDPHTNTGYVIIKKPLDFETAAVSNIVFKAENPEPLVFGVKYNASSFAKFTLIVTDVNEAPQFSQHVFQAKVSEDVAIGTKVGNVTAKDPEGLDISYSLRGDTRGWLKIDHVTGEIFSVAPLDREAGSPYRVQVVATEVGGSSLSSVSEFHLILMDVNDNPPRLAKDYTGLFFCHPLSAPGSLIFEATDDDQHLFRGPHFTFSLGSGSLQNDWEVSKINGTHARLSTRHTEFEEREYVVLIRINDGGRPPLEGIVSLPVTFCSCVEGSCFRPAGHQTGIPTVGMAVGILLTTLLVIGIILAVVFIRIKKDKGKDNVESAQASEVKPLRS

[2] = target: T2, CDH17 human full length Flag tagged antigen, transfected into HEK293 cells (human, UniProt Q12864 23-832); assay: flow cytometry on HEK293 cells transiently transfected with Flag tagged human CDH17; panel 'CDH17 Human Flag Tag analyzed with CDH17_A4_4K'
T2 construct: The Flag tag may sit at either end; also called Flag tagged Human CDH17; human CDH17; not shown: Flag tag
T2 sequence: T1 sequence
Experimental: (§1) The humanized monoclonal antibodies, CDH17_A4_{—}4K and CDH17_A4_{—}4R were incubated with cells on ice for 1 hour and then washed twice with cold FACS buffer and re-suspended in 100 ul FACS buffer per well. A secondary antibody was added at 1 ug/ml along with goat anti-mouse H+L PE (Southern Biotech) for Anti-flag and mouse isotype control and goat anti-human H+L PE (Southern Biotech) for human isotype control. The plate was then incubated for 1 hour after which was washed three times with FACS buffer and re-suspended 150 ul FACS buffer per well. 50 ul of 4% paraformaldehyde was then added to fix the cells before storing the plate overnight at 4 degrees C. The sample were then run on Guava EasyCyte Flow Cytometer HT plus and the data analyzed using the Guava Cytosoft software suite.

[3] = target: T2, CDH17 human full length Flag tagged …; assay: flow cytometry on HEK293 cells transiently transfected with Flag tagged human CDH17; panel 'CDH17 Human Flag Tag analyzed with CDH17_A4_4R'
Experimental: as §1

B1: CDH17_A4 monoclonal antibody (Fab, V domains shown)
VH: EVQLQQSVAELVKPGASVKMSCKVSGYTLTDHTIHWMKQRPEQGLEWIGYIYPRDGITGYNEKFKGKATLTADTSSSTAYMQLNSLTSEDSAVYFCARWGYSYRNYAYYYDYWGQGTTLTVSS
VL: DIVMSQSPSSLAVSVGEKVTMSCKSSQSLLHSSNQKNYLAWYQQKPGQSPKVLIYWASTRESGVPDRFTGSGSGTDFTLTITSVKSEDLAVYYCQQYYSYPWTFGGGTRLEIK
notes: also called CHD17_A4
B1: binds [1].

B2: humanized CDH17_A4-4K monoclonal antibody (antibody, V domains shown)
VH: QVQLVQSGAEVKKPGASVKVSCKASGYTLTDHTIHWMRQAPGQRLEWIGYIYPRDGITGYNEKFKGKATLTADTSASTAYMELSSLRSEDTAVYYCARWGYSYRNYAYYYDYWGQGTLVTVSS
VL: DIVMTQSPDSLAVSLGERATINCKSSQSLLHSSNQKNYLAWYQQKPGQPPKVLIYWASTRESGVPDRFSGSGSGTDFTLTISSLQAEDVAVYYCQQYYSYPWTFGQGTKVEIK
notes: It was detected with an anti-human IgG secondary in the HumZAP assay
Binder B2 has an EC50 [2] of 0.14 nM.

B3: humanized CDH17_A4-4R monoclonal antibody (antibody, V domains shown)
VH: B2 VH with K63R, K65R
VL: DIVMTQSPDSLAVSLGERATINCRSSQSLLHSSNQRNYLAWYQQKPGQPPKVLIYWASTRESGVPDRFSGSGSGTDFTLTISSLQAEDVAVYYCQQYYSYPWTFGQGTKVEIK
notes: as for B2
Binder B3 has an EC50 [3] of 0.13 nM.

— patent publication US20130259878A1 (OXFORD BIOTHERAPEUTICS, published 2013)
